Measurements reported in patent US20170240628A1 (CELLMID, published 2017).

T1: recombinant human midkine (huMK) (human, UniProt P21741 21-143)
T1 construct: also called human MK; Human MK
T1 sequence (looked up): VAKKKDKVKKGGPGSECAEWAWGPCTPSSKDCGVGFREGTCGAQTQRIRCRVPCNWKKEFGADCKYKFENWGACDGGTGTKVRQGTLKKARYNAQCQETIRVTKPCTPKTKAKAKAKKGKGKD

T2: recombinant murine midkine (muMK) (murine, UniProt P12025 23-140)
T2 construct: also called murine MK; Murine MK
T2 sequence (looked up): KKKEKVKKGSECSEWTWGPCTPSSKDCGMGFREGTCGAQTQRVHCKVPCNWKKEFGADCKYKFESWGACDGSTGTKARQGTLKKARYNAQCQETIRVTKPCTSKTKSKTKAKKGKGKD


What was measured:
[1] = molecular target: T1, recombinant human midkine (huMK); test: ELISA, plate coated with huMK
Description: (§1) The binding specificity and affinity of the humanised anti-MK antibodies to recombinant human MK (huMK) and murine MK (muMK) was assessed by ELISA. ELISA plates (Nunc Immuno MaxiSorp 96 well flat-bottom were coated with 100 uL of 2 ug/mL of either huMK or muMK in 2% BSA/PBS (overnight at room temperature). After washing, blocking (1 h at 37° C.), and washing again, the humanised anti-MK and chimeric antibodies described in Example 1 were analysed for binding to huMK or muMK at concentrations ranging between 3 μg/ml and 0.00004 μg/ml in 2% BSA/PBS (1 h at 37° C.). After washing, the binding of antibody was detected with goat anti-mouse IgG (Fab specific)-HRP conjugate (Sigma, Cat. No. A9917) and SigmaFast OPD substrate (Sigma, Cat. No. P9187). The reaction was stopped with 3 M HCl, absorbance read at 490 nm on a Dynex Technologies MRX TC II plate reader and the binding curves plotted. Binding affinity data for the humanised anti-MK antibodies to huMK and muMK are presented in Table 6 and Table 7 respectively, and in FIG. 3.

[2] = molecular target: T2, recombinant murine midkine (muMK); test: ELISA, plate coated with muMK
Description: as §1

Binder	EC50 [1]	EC50 [2]
IP14-H2L4 (antibody, V domains shown, also called Hv2 Lv4) VH: QVQLVQSGAEVKKPGASVKVSCKASGQSFSSYWMNWVRQAPGQGLEWIGMIHPSDSETILNQKFKDKATLTVDISTSTAYMELSSLRSEDTAVYYCSSWSAKRGDFWGQGTLVTVSS VL: EIVLTQSPDFQSVTPKEKVNITCRASESISNNLHWYQQKPHQSPKLLIYYASQSISGVPSRFSGSGSGTDFNLTINSVEAEDAATYYCQQSNSWPLTFGGGTKLEIKR	0.053 nM	0.078 nM
IP14-H2L6 (antibody, V domains shown, also called Hv2 Lv6) VH: QVQLVQSGAEVKKPGASVKVSCKASGQSFSSYWMNWVRQAPGQGLEWIGMIHPSDSETILNQKFKDKATLTVDISTSTAYMELSSLRSEDTAVYYCSSWSAKRGDFWGQGTLVTVSS VL: EIVLTQSPSTLSASVGDRVNITCRASESISNNLHWYQQKPHKAPKLLIYYASQSISGVPSRFSGSGSGTEFNLTISSVQPDDFATYYCQQSNSWPLTFGQGTKVEIKR	0.054 nM	0.073 nM
IP14-H2L3 (antibody, V domains shown, also called hIP14-H2L3; Hv2 Lv3) VH: QVQLVQSGAEVKKPGASVKVSCKASGQSFSSYWMNWVRQAPGQGLEWIGMIHPSDSETILNQKFKDKATLTVDISTSTAYMELSSLRSEDTAVYYCSSWSAKRGDFWGQGTLVTVSS VL: DIVLTQSPATLSLSPGERATLSCRASESISNNLHWYQQKPGQAPRLLIYYASQSISGIPARFSGSGPGTDFTLTISSLEPEDFAVYYCQQSNSWPLTFGGGTKLEIKR	0.068 nM	0.081 nM
IP14-H3L2 (antibody, V domains shown, also called Hv3 Lv2) VH: QVQLVQSGAEVKKPGASVKVSCKASGQSFSSYWMNWVRQAPGQGLEWMGMIHPSDSETILNQKFKDKVTMTRDTSTSTVYMELSSLRSEDTAVYYCARWSAKRGDFWGQGTLVTVSS VL: EIVLTQSPATLSLSPGERATLSCRASESISNNLHWYQQKPGQAPRLLIKYASQSISGIPARFSGSGPGTDFTLTISSVEPEDFAVYYCQQSNSWPLTFGGGTKLEIKR	0.082 nM	0.1 nM
IP14-H2L7 (antibody, V domains shown, also called Hv2 Lv7) VH: QVQLVQSGAEVKKPGASVKVSCKASGQSFSSYWMNWVRQAPGQGLEWIGMIHPSDSETILNQKFKDKATLTVDISTSTAYMELSSLRSEDTAVYYCSSWSAKRGDFWGQGTLVTVSS VL: DIVLTQSPATLSLSPGERANLSCRASESISNNLHWYQQKPHQAPRLLIYYASQSISGVPARFSGSGSGTDFNLTISSVEPEDFAVYYCQQSNSWPLTFGQGTKVEIKR	0.058 nM	0.071 nM
IP14-H2L1 (antibody, V domains shown, also called Hv2 Lv1) VH: QVQLVQSGAEVKKPGASVKVSCKASGQSFSSYWMNWVRQAPGQGLEWIGMIHPSDSETILNQKFKDKATLTVDISTSTAYMELSSLRSEDTAVYYCSSWSAKRGDFWGQGTLVTVSS VL: EIVLTQSPATLSLSPGERANLSCRASESISNNLHWYQQKPHQAPRLLIKYASQSISGIPARFSGSGPGTDFNLTISSVEPEDFAVYYCQQSNSWPLTFGGGTKLEIKR	0.093 nM	0.09 nM
IP14-H1L2 (antibody, V domains shown, also called Hv1 Lv2) VH: QVQLVQSGAEVKKPGHSVKVSCKASGQSFSSYWMNWVRQAPGQGLEWIGMIHPSDSETILNQKFKDKATLTVDISTSTAYMELSSPRSEDTAVYYCSSWSAKRGDFWGQGTLVTVSS VL: EIVLTQSPATLSLSPGERATLSCRASESISNNLHWYQQKPGQAPRLLIKYASQSISGIPARFSGSGPGTDFTLTISSVEPEDFAVYYCQQSNSWPLTFGGGTKLEIKR	0.065 nM	0.051 nM
IP14-H1L3 (antibody, V domains shown, also called hIP14-H1L3; Hv1 Lv3) VH: QVQLVQSGAEVKKPGHSVKVSCKASGQSFSSYWMNWVRQAPGQGLEWIGMIHPSDSETILNQKFKDKATLTVDISTSTAYMELSSPRSEDTAVYYCSSWSAKRGDFWGQGTLVTVSS VL: DIVLTQSPATLSLSPGERATLSCRASESISNNLHWYQQKPGQAPRLLIYYASQSISGIPARFSGSGPGTDFTLTISSLEPEDFAVYYCQQSNSWPLTFGGGTKLEIKR	0.063 nM	0.089 nM
IP14-H3L1 (antibody, V domains shown, also called Hv3 Lv1) VH: QVQLVQSGAEVKKPGASVKVSCKASGQSFSSYWMNWVRQAPGQGLEWMGMIHPSDSETILNQKFKDKVTMTRDTSTSTVYMELSSLRSEDTAVYYCARWSAKRGDFWGQGTLVTVSS VL: EIVLTQSPATLSLSPGERANLSCRASESISNNLHWYQQKPHQAPRLLIKYASQSISGIPARFSGSGPGTDFNLTISSVEPEDFAVYYCQQSNSWPLTFGGGTKLEIKR	0.091 nM	0.12 nM
IP14-H5L4 (antibody, V domains shown, also called Hv5 Lv4) VH: QVQLVQSGGGLVQPGGSLRLSCAASGQSFSSYWMNWVRQAPGQGLEWIGMIHPSDSETILNQKFKDKATLTVDISKNTAYLQMNSLRAEDTAVYYCSSWSAKRGDFWGQGTLVTVSS VL: EIVLTQSPDFQSVTPKEKVNITCRASESISNNLHWYQQKPHQSPKLLIYYASQSISGVPSRFSGSGSGTDFNLTINSVEAEDAATYYCQQSNSWPLTFGGGTKLEIKR	0.069 nM	0.051 nM
IP14-H5L6 (antibody, V domains shown, also called Hv5 Lv6) VH: QVQLVQSGGGLVQPGGSLRLSCAASGQSFSSYWMNWVRQAPGQGLEWIGMIHPSDSETILNQKFKDKATLTVDISKNTAYLQMNSLRAEDTAVYYCSSWSAKRGDFWGQGTLVTVSS VL: EIVLTQSPSTLSASVGDRVNITCRASESISNNLHWYQQKPHKAPKLLIYYASQSISGVPSRFSGSGSGTEFNLTISSVQPDDFATYYCQQSNSWPLTFGQGTKVEIKR	0.073 nM	0.044 nM
IP14-H6L4 (antibody, V domains shown, also called Hv6 Lv4) VH: QVQLVQSGGGLVKPGHSLRLSCAASGQSFSSYWMNWVRQAPGKGLEWIGMIHPSDSETILNQKFKDKATLSVDIAKNSAYLQMNSLRAEDTAVYYCSSWSAKRGDFWGQGTLVTVSS VL: EIVLTQSPDFQSVTPKEKVNITCRASESISNNLHWYQQKPHQSPKLLIYYASQSISGVPSRFSGSGSGTDFNLTINSVEAEDAATYYCQQSNSWPLTFGGGTKLEIKR	0.073 nM	0.051 nM

The remaining binders from weak to strong by EC50 [1], led by results:

EC50 [1]	EC50 [2]	Binder
0.056 nM	0.044 nM	IP14-H1L1 (antibody, V domains shown, also called Hv1 Lv1) VH: QVQLVQSGAEVKKPGHSVKVSCKASGQSFSSYWMNWVRQAPGQGLEWIGMIHPSDSETILNQKFKDKATLTVDISTSTAYMELSSPRSEDTAVYYCSSWSAKRGDFWGQGTLVTVSS VL: EIVLTQSPATLSLSPGERANLSCRASESISNNLHWYQQKPHQAPRLLIKYASQSISGIPARFSGSGPGTDFNLTISSVEPEDFAVYYCQQSNSWPLTFGGGTKLEIKR
0.056 nM	0.069 nM	IP14-H2L8 (antibody, V domains shown, also called hIP14-H2L8; Hv2 Lv8) VH: QVQLVQSGAEVKKPGASVKVSCKASGQSFSSYWMNWVRQAPGQGLEWIGMIHPSDSETILNQKFKDKATLTVDISTSTAYMELSSLRSEDTAVYYCSSWSAKRGDFWGQGTLVTVSS VL: DIVLTQSPATLSLSPGERATLSCRASESISNNLHWYQQKPHQAPRLLIYYASQSISGVPARFSGSGSGTDFTLTISSVEPEDFAVYYCQQSNSWPLTFGQGTKVEIKR
0.053 nM	0.087 nM	IP14-H1L6 (antibody, V domains shown, also called Hv1 Lv6) VH: QVQLVQSGAEVKKPGHSVKVSCKASGQSFSSYWMNWVRQAPGQGLEWIGMIHPSDSETILNQKFKDKATLTVDISTSTAYMELSSPRSEDTAVYYCSSWSAKRGDFWGQGTLVTVSS VL: EIVLTQSPSTLSASVGDRVNITCRASESISNNLHWYQQKPHKAPKLLIYYASQSISGVPSRFSGSGSGTEFNLTISSVQPDDFATYYCQQSNSWPLTFGQGTKVEIKR
0.05 nM	0.089 nM	IP14-H1L8 (antibody, V domains shown, also called hIP14-H1L8; Hv1 Lv8) VH: QVQLVQSGAEVKKPGHSVKVSCKASGQSFSSYWMNWVRQAPGQGLEWIGMIHPSDSETILNQKFKDKATLTVDISTSTAYMELSSPRSEDTAVYYCSSWSAKRGDFWGQGTLVTVSS VL: DIVLTQSPATLSLSPGERATLSCRASESISNNLHWYQQKPHQAPRLLIYYASQSISGVPARFSGSGSGTDFTLTISSVEPEDFAVYYCQQSNSWPLTFGQGTKVEIKR
0.05 nM	0.081 nM	IP14-H1L4 (antibody, V domains shown, also called Hv1 Lv4) VH: QVQLVQSGAEVKKPGHSVKVSCKASGQSFSSYWMNWVRQAPGQGLEWIGMIHPSDSETILNQKFKDKATLTVDISTSTAYMELSSPRSEDTAVYYCSSWSAKRGDFWGQGTLVTVSS VL: EIVLTQSPDFQSVTPKEKVNITCRASESISNNLHWYQQKPHQSPKLLIYYASQSISGVPSRFSGSGSGTDFNLTINSVEAEDAATYYCQQSNSWPLTFGGGTKLEIKR
0.043 nM	0.081 nM	IP14-H1L7 (antibody, V domains shown, also called Hv1 Lv7) VH: QVQLVQSGAEVKKPGHSVKVSCKASGQSFSSYWMNWVRQAPGQGLEWIGMIHPSDSETILNQKFKDKATLTVDISTSTAYMELSSPRSEDTAVYYCSSWSAKRGDFWGQGTLVTVSS VL: DIVLTQSPATLSLSPGERANLSCRASESISNNLHWYQQKPHQAPRLLIYYASQSISGVPARFSGSGSGTDFNLTISSVEPEDFAVYYCQQSNSWPLTFGQGTKVEIKR
